Test results taken from patent US20250296971A1, “GASTRIC INHIBITORY PEPTIDE RECEPTOR LIGANDS” (priority 2021, published 2025).
*1 amine or outer side, *2 acyl side, *3 side chain or, on linkers, in order; H or OH if unused. Bridges are numbered along the chain shown (N, C = ends). Primed or numbered codes have the meaning given here. [ ]: non-standard residue; d: D form. The star is where a group is joined. Ttds″ = 1,13-diamino-4,7,10-trioxatridecan-succinamic acid (linker), O=C(CCC(=O)[*:2])NCCCOCCOCCOCCCN[*:1]; Ttds = 1,13-diamino-4,7,10-trioxatridecan-succinamic acid, NCCCOCCOCCOCCCNC(=O)CCC(=O)*; DOTA(In) = O=C1CN2CCN3CCN(CC(=O)*)CCN(CC2)CC(=O)[O][In]([O]1)[O]C(=O)C3; APAc″ = 4-amino-1-carboxymethylpiperidine, NC1CCN(CC(=O)*)CC1; Pro(trans-4-NH2) = O=C([C@@H]1C[C@@H](N[*:3])CN1[*:1])[*:2]; DOTA = O=C(O)CN1CCN(CC(=O)O)CCN(CC(=O)*)CCN(CC(=O)O)CC1; 3MeBn = 3-methyl-benzylidene (derived from 1,3-xylene); 2Lut = 2,6-lutidylidene bridge between two thiols; Trp(5-Cl) = N[C@@H](Cc1c[nH]c2ccc(Cl)cc12)C(=O)O; Pyridine(2,6-diCH2) = c1cc(C[*:1])nc(C[*:2])c1; APAc = 4-amino-1-carboxymethylpiperidine; mXylylene = c1cc(C[*:1])cc(C[*:2])c1; Hyp = O=C(O)[C@@H]1C[C@@H](O)CN1; Cysteamide = C(CS[*:3])N[*:1]; Suc = O=C(CCC(=O)[*:2])[*:1]; Api = NC1(C(=O)O)CCNCC1; Thp = NC1(C(=O)O)CCOCC1; Dap = NC[C@H](N)C(=O)O; Aib = CC(C)(N)C(=O)O

B1: DOTA-APAc-Asp-Trp-5Clw-Hyp-Glu-leu-[Dap(3MeBn)-Thp-Leu-Ile-AET] (peptide)
peptide: {DOTA-APAc″}-DW[Trp(5-Cl)][Hyp]E[dL][Dap][Thp]LI[Cysteamide]
modifications: linker (positions not given here) via mXylylene; not fully specified (bridges); printed as DOTA-APAc-Asp-Trp-5Clw-Hyp-Glu-leu-[Dap(3MeBn)-Thp-Leu-Ile-AET]
B2: DOTA-Ttds-Asp-Trp-5Clw-Pro-Glu-leu-[Cys(2Lut)-Apc-Leu-Ile-AET] (peptide)
peptide: {DOTA-Ttds″}-DW[Trp(5-Cl)]PE[dL]C[Api]LI-Cysteamide
modifications: not fully specified (bridges); printed as DOTA-Ttds-Asp-Trp-5Clw-Pro-Glu-leu-[Cys(2Lut)-Apc-Leu-Ile-AET]

molecular target: biotinylated extracellular domain of the human GIP receptor (bioGIPR) (human) (UniProt P48546); assay: SPR single cycle kinetics, bioGIPR captured on chip; category A: pKD >9.0
Sequence (P48546 24-138 limits assumed): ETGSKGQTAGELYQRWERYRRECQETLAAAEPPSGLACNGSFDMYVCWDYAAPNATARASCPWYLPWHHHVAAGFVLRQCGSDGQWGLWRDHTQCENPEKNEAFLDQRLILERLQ

| pKD [pkd] | Binder |
| --- | --- |
| > 9 | B1 |
| > 9 | Suc-W[Trp(5-Cl)][Hyp]E[dL]C[Thp]LIC-{APAc-Lys(DOTA)-NH2} (linker 6-10 via 2Lut) [HO-Succinyl-Trp-5Clw-Hyp-Glu-leu-[Cys(2Lut)-Thp-Leu-Ile-Cys]-APAc-Lys(DOTA)-NH2] |
| > 9 | {DOTA(In)-Ttds}-DW[Trp(5-Cl)][Hyp]E[dL]C[Aib]LI[Cysteamide] (linker 7-11 via 3MeBn; also: DOTA as indium complex (InDOTA)) [InDOTA-Ttds-Asp-Trp-5Clw-Hyp-Glu-leu-[Cys(3MeBn)-Aib-Leu-Ile-AET]] |
| > 9 | {DOTA-Ttds}-DW[Trp(5-Cl)][Pro(trans-4-NH2)]E[dL][Dap][Api]LI[Cysteamide] (linker 7-11 via Pyridine(2,6-diCH2)) [DOTA-Ttds-Asp-Trp-5Clw-Tap-Glu-leu-[Dap(2Lut)-Apc-Leu-Ile-AET]] |
| > 9 | Suc-W[Trp(5-Cl)][Hyp]E[dL]C[Api]LIC-{APAc-Lys(DOTA)-NH2} (linker 6-10 via 2Lut) [HO-Succinyl-Trp-5Clw-Hyp-Glu-leu-[Cys(2Lut)-Apc-Leu-Ile-Cys]-APAc-Lys(DOTA)-NH2] |
| > 9 | {DOTA(In)-APAc″}-DW[Trp(5-Cl)][Hyp]E[dL]C[Thp]LI[Cysteamide] (linker 7-11 via 2Lut; also: DOTA as indium complex (InDOTA)) [InDOTA-APAc-Asp-Trp-5Clw-Hyp-Glu-leu-[Cys(2Lut)-Thp-Leu-Ile-AET]] |
| > 9 | B2 |
| > 9 | {DOTA(In)-APAc″}-DW[Trp(5-Cl)]PE[dL]C[Aib]LI[Cysteamide] (linker 7-11 via 3MeBn; also: DOTA as indium complex (InDOTA)) [InDOTA-APAc-Asp-Trp-5Clw-Pro-Glu-leu-[Cys(3MeBn)-Aib-Leu-Ile-AET]] |

molecular target: human Gastric Inhibitory Peptide Receptor (human) (UniProt P48546); assay: FACS competition with GIP-057 on CHO-K1-hGIPR cells; pIC50 category A: >8.0
Sequence (P48546 22-466 limits assumed): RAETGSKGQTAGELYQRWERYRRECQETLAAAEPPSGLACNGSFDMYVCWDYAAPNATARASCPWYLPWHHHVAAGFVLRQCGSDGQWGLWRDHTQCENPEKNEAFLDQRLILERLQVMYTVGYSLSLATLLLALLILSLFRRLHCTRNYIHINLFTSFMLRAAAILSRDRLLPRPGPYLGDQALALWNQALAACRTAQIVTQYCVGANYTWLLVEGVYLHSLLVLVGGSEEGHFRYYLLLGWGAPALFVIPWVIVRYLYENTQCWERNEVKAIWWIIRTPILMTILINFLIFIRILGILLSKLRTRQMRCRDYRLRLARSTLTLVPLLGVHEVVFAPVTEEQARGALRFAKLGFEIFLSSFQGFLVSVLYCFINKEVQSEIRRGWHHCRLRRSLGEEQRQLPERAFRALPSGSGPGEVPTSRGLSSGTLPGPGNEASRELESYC

| pIC50 [pic50] | Binder |
| --- | --- |
| > 8 | B1 |
| > 8 | Suc-W[Trp(5-Cl)][Hyp]E[dL]C[Thp]LIC-{APAc-Lys(DOTA)-NH2} (linker 6-10 via 2Lut) [HO-Succinyl-Trp-5Clw-Hyp-Glu-leu-[Cys(2Lut)-Thp-Leu-Ile-Cys]-APAc-Lys(DOTA)-NH2] |
| > 8 | {DOTA(In)-Ttds}-DW[Trp(5-Cl)][Hyp]E[dL]C[Aib]LI[Cysteamide] (linker 7-11 via 3MeBn; also: DOTA as indium complex (InDOTA)) [InDOTA-Ttds-Asp-Trp-5Clw-Hyp-Glu-leu-[Cys(3MeBn)-Aib-Leu-Ile-AET]] |
| > 8 | {DOTA-Ttds}-DW[Trp(5-Cl)][Pro(trans-4-NH2)]E[dL][Dap][Api]LI[Cysteamide] (linker 7-11 via Pyridine(2,6-diCH2)) [DOTA-Ttds-Asp-Trp-5Clw-Tap-Glu-leu-[Dap(2Lut)-Apc-Leu-Ile-AET]] |
| > 8 | Suc-W[Trp(5-Cl)][Hyp]E[dL]C[Api]LIC-{APAc-Lys(DOTA)-NH2} (linker 6-10 via 2Lut) [HO-Succinyl-Trp-5Clw-Hyp-Glu-leu-[Cys(2Lut)-Apc-Leu-Ile-Cys]-APAc-Lys(DOTA)-NH2] |
| > 8 | {DOTA(In)-APAc″}-DW[Trp(5-Cl)][Hyp]E[dL]C[Thp]LI[Cysteamide] (linker 7-11 via 2Lut; also: DOTA as indium complex (InDOTA)) [InDOTA-APAc-Asp-Trp-5Clw-Hyp-Glu-leu-[Cys(2Lut)-Thp-Leu-Ile-AET]] |
| > 8 | B2 |
| > 8 | {DOTA(In)-APAc″}-DW[Trp(5-Cl)]PE[dL]C[Aib]LI[Cysteamide] (linker 7-11 via 3MeBn; also: DOTA as indium complex (InDOTA)) [InDOTA-APAc-Asp-Trp-5Clw-Pro-Glu-leu-[Cys(3MeBn)-Aib-Leu-Ile-AET]] |

molecular target: biotinylated extracellular domain of the human GIP receptor (bioGIPR) (human) (UniProt P48546); assay: SPR single cycle kinetics, bioGIPR captured on chip; category A: t1/2 >15 min

| t1/2 [min] | Binder |
| --- | --- |
| > 15 | B1 |
| > 15 | Suc-W[Trp(5-Cl)][Hyp]E[dL]C[Thp]LIC-{APAc-Lys(DOTA)-NH2} (linker 6-10 via 2Lut) [HO-Succinyl-Trp-5Clw-Hyp-Glu-leu-[Cys(2Lut)-Thp-Leu-Ile-Cys]-APAc-Lys(DOTA)-NH2] |
| > 15 | {DOTA(In)-Ttds}-DW[Trp(5-Cl)][Hyp]E[dL]C[Aib]LI[Cysteamide] (linker 7-11 via 3MeBn; also: DOTA as indium complex (InDOTA)) [InDOTA-Ttds-Asp-Trp-5Clw-Hyp-Glu-leu-[Cys(3MeBn)-Aib-Leu-Ile-AET]] |
| > 15 | {DOTA-Ttds}-DW[Trp(5-Cl)][Pro(trans-4-NH2)]E[dL][Dap][Api]LI[Cysteamide] (linker 7-11 via Pyridine(2,6-diCH2)) [DOTA-Ttds-Asp-Trp-5Clw-Tap-Glu-leu-[Dap(2Lut)-Apc-Leu-Ile-AET]] |
| > 15 | Suc-W[Trp(5-Cl)][Hyp]E[dL]C[Api]LIC-{APAc-Lys(DOTA)-NH2} (linker 6-10 via 2Lut) [HO-Succinyl-Trp-5Clw-Hyp-Glu-leu-[Cys(2Lut)-Apc-Leu-Ile-Cys]-APAc-Lys(DOTA)-NH2] |
| > 15 | {DOTA(In)-APAc″}-DW[Trp(5-Cl)][Hyp]E[dL]C[Thp]LI[Cysteamide] (linker 7-11 via 2Lut; also: DOTA as indium complex (InDOTA)) [InDOTA-APAc-Asp-Trp-5Clw-Hyp-Glu-leu-[Cys(2Lut)-Thp-Leu-Ile-AET]] |
| > 15 | B2 |
| > 15 | {DOTA(In)-APAc″}-DW[Trp(5-Cl)]PE[dL]C[Aib]LI[Cysteamide] (linker 7-11 via 3MeBn; also: DOTA as indium complex (InDOTA)) [InDOTA-APAc-Asp-Trp-5Clw-Pro-Glu-leu-[Cys(3MeBn)-Aib-Leu-Ile-AET]] |
